Experiments:
[1] = target: Aβ42 oligomers formed during the in vitro aggregation of Aβ42 (M1–42) (UniProt P05067); assay: TIRF single-molecule colocalisation imaging
[2] = target: Aβ42 amyloid fibrils (UniProt P05067); assay: microfluidic diffusional sizing

Question: Which results are given for AF647-labeled DesAb-O (antibody)?
Answer: percentage of coincidence of ThT and AF647-DesAb-O signals [1]: < 45%; Kd [2]: 1 µM; stoichiometry N (DesAb-O per Aβ42 monomer) [2]: 0.005

From PMC7306997
